# What was measured:
# His-GFP-Klp2 = molecular target: T1, His-GFP-Klp2 (S. pombe, UniProt Q9US03 1-817); assay: pull-down
# T1 sequence: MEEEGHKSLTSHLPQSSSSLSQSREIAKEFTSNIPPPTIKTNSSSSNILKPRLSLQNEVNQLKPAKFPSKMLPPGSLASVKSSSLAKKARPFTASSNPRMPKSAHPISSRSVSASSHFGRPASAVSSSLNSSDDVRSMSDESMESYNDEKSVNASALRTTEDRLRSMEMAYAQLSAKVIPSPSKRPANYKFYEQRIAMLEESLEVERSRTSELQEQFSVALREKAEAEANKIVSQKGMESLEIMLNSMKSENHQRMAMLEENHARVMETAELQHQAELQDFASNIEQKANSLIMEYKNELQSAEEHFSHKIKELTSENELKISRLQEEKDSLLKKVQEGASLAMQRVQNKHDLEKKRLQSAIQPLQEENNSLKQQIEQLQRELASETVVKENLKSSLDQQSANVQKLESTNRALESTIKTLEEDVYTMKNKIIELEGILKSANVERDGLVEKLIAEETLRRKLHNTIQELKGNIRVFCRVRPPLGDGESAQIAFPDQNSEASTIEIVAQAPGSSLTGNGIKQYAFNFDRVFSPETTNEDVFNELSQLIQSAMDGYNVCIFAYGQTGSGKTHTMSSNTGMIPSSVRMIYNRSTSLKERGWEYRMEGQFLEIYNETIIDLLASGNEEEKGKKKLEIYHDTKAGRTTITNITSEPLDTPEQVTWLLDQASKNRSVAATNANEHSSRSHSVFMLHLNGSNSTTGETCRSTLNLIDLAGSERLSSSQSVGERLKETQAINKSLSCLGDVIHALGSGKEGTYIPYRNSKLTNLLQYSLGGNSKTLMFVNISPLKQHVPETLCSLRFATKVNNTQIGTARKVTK
# StrepII-GFP-Klp2 = molecular target: T2, StrepII-GFP-Klp2 (S. pombe, UniProt Q9US03 1-817); assay: TIRF microscopy of purified proteins on microtubules
# T2 sequence: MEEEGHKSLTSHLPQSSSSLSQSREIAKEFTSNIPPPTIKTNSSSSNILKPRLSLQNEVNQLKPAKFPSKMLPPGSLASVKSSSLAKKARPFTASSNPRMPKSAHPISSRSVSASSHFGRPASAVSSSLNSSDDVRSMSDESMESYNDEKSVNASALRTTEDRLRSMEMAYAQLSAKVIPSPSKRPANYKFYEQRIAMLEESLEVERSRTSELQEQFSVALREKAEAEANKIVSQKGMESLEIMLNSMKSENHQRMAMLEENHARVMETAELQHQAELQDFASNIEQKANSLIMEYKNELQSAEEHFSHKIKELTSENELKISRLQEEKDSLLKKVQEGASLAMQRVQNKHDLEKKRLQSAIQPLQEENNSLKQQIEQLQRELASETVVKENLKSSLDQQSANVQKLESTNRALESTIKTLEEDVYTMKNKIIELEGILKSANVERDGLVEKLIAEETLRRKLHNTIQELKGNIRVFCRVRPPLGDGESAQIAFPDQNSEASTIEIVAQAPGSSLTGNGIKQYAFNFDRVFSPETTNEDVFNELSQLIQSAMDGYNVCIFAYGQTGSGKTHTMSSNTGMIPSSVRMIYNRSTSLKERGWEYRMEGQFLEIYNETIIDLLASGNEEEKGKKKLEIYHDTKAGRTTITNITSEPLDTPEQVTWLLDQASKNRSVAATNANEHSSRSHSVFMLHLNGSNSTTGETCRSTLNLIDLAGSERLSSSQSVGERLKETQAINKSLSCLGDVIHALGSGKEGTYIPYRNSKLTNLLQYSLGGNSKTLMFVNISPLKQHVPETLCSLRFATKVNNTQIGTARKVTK
Binder,binding result (His-GFP-Klp2),binding result (StrepII-GFP-Klp2)
GST-Rsp1 (natural protein) MARTAFHDEFVDYYTILGAESTSSYVEIRQQYLKLVLRYHPDRNPGREAEVLPQFQLIQKAHEVLKDPKLRELFDQRRLLEAGRPDGVLRFRPKKSGPKNDISTKVASKVSVTMATKFAEKKKKQDRENVDSKDNNITNFSLHRSFSASGKMEKNNSFKEVSTSKSYISSGYLHPKTSPIFKKNGYATENVVDPISSSPRFKGPNYNKFNAKLYLESLREKRRTYTPLSEISNGLNSNGVENSSITKSSPRSSSSSNNERFKDTSEESIIFTSPNTPEHPSVYQTDITPEIKLEHSDNNSPSKPEIPFRHPTSKPLPPKPLSRSKSSSLSRNQTRSQLNDLSAENDSTSNSTEYDDQLQSILRSLAIEGDDDEVAKVLPKPPSVPTIQAPIPPEAPRNLTNASVDSYLNSFEMYQRRWSSYSIIYTQYAFQWQIFKNKCFQLDLMNTPGQSRLIDNWKEGSQAIQLFYAYEQMHLRALEELQSLKESLFASFGI,binds,
Rsp1-mCherry-StrepII (natural protein) MARTAFHDEFVDYYTILGAESTSSYVEIRQQYLKLVLRYHPDRNPGREAEVLPQFQLIQKAHEVLKDPKLRELFDQRRLLEAGRPDGVLRFRPKKSGPKNDISTKVASKVSVTMATKFAEKKKKQDRENVDSKDNNITNFSLHRSFSASGKMEKNNSFKEVSTSKSYISSGYLHPKTSPIFKKNGYATENVVDPISSSPRFKGPNYNKFNAKLYLESLREKRRTYTPLSEISNGLNSNGVENSSITKSSPRSSSSSNNERFKDTSEESIIFTSPNTPEHPSVYQTDITPEIKLEHSDNNSPSKPEIPFRHPTSKPLPPKPLSRSKSSSLSRNQTRSQLNDLSAENDSTSNSTEYDDQLQSILRSLAIEGDDDEVAKVLPKPPSVPTIQAPIPPEAPRNLTNASVDSYLNSFEMYQRRWSSYSIIYTQYAFQWQIFKNKCFQLDLMNTPGQSRLIDNWKEGSQAIQLFYAYEQMHLRALEELQSLKESLFASFGI,,binds

# Reference: article PMC11698074 (Science Advances, 2025)
